Test results taken from US10227388B2, “Peptides and combination of peptides for use in immunotherapy against non-small cell lung cancer and other cancers” (immatics biotechnologies GmbH, priority 2015, dated 2019).

biological target: HLA-A*02:01 (Homo sapiens, UniProt P04439, D140Y/D185E/D98H/E176V/E277Q/G131W/G231S/I119V/I121R/I166T/I218V/L300P/L318F/N151K/N90K/P208A/P217A/Q86G/Q94H/R138H/R169H/T345S); assay: MHC binding assay (UV-ligand exchange, ELISA, peptide exchange yield); settings: binding of HLA-class I restricted peptides to HLA-A*02:01
How it was run: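 Peptide–HLA-A*02:01 complexes made by UV-ligand exchange of a UV-cleavable peptide for the test peptide. Exchange yield measured by ELISA: 100-fold diluted monomers captured on streptavidin, 1 h at 37° C., detected with HRP anti-β2m and TMB, absorbance at 450 nm.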

Row | Substance | Peptide exchange (MHC class I binding score, peptide exchange yield)
1 | 505 (SLAPGDVVRQV; listed as Homo sapiens) [compound 505] | ″++″ (≥20% = ++)
2 | 509 (FLFDTKPLIV; listed as Homo sapiens) [compound 509] | ″+++″ (≥50% = +++)
3 | 510 (KLYSVVSQL; listed as Homo sapiens) [compound 510] | ″++″ (≥20% = ++)
4 | 512 (SLSEIVPCL; listed as Homo sapiens) [compound 512] | ″+++″ (≥50% = +++)
5 | 515 (LLQELVLFL; listed as Homo sapiens) [compound 515] | ″+++″ (≥50% = +++)
6 | 517 (LLMPIPEGLTL; listed as Homo sapiens) [compound 517] | ″+++″ (≥50% = +++)
7 | 518 (KLNAEVACV; listed as Homo sapiens) [compound 518] | ″+++″ (≥50% = +++)
8 | 519 (GLLHLTLLL; listed as Homo sapiens) [compound 519] | ″+++″ (≥50% = +++)
9 | 520 (LAVHPSGVAL; listed as Homo sapiens) [compound 520] | ″+″ (≥10% = +)
10 | 524 (ALIENLTHQI; listed as Homo sapiens) [compound 524] | ″++″ (≥20% = ++)
11 | 526 (RLAEVGQYEQV; listed as Homo sapiens) [compound 526] | ″++″ (≥20% = ++)
12 | 527 (FLLEPGNLEV; listed as Homo sapiens) [compound 527] | ″++++″ (≥75% = ++++)
13 | 529 (LLADELITV; listed as Homo sapiens) [compound 529] | ″+++″ (≥50% = +++)
14 | 531 (YTLPIASSIRL; listed as Homo sapiens) [compound 531] | ″+++″ (≥50% = +++)
15 | 538 (LLLAHIIAL; listed as Homo sapiens) [compound 538] | ″++″ (≥20% = ++)
16 | 539 (ALFDAQAQV; listed as Homo sapiens) [compound 539] | ″+++″ (≥50% = +++)
17 | 541 (SMLEPVPEL; listed as Homo sapiens) [compound 541] | ″+++″ (≥50% = +++)
18 | 542 (RVWDISTVSSV; listed as Homo sapiens) [compound 542] | ″+++″ (≥50% = +++)
19 | 543 (GLLPTPITQQASL; listed as Homo sapiens) [compound 543] | ″+++″ (≥50% = +++)
20 | 546 (VMIAGKVAVV; listed as Homo sapiens) [compound 546] | ″+++″ (≥50% = +++)
21 | 547 (TLDITPHTV; listed as Homo sapiens) [compound 547] | ″+++″ (≥50% = +++)
22 | 552 (GLLDLPFRVGV; listed as Homo sapiens) [compound 552] | ″++++″ (≥75% = ++++)
23 | 557 (KLYDDMIRL; listed as Homo sapiens) [compound 557] | ″+++″ (≥50% = +++)
24 | 559 (VTVPPGPSL; listed as Homo sapiens) [compound 559] | ″++″ (≥20% = ++)

Further lines, results first:

Row | Peptide exchange (MHC class I binding score, peptide exchange yield) | Substance
25 | ″++″ (≥20% = ++) | 504 (GLSDGNPSL; listed as Homo sapiens) [compound 504]
26 | ″+++″ (≥50% = +++) | 506 (KLLGKVETA; listed as Homo sapiens) [compound 506]
27 | ″+++″ (≥50% = +++) | 507 (KLIDDQDISISL; listed as Homo sapiens) [compound 507]
28 | ″+++″ (≥50% = +++) | 508 (ILAQEQLVVGV; listed as Homo sapiens) [compound 508]
29 | ″++″ (≥20% = ++) | 513 (SLWPSPEQL; listed as Homo sapiens) [compound 513]
30 | ″+++″ (≥50% = +++) | 514 (ILVDWLVQV; listed as Homo sapiens) [compound 514]
31 | ″++″ (≥20% = ++) | 516 (AVGPASILKEV; listed as Homo sapiens) [compound 516]
32 | ″+++″ (≥50% = +++) | 521 (MLLTKLPTI; listed as Homo sapiens) [compound 521]
33 | ″++″ (≥20% = ++) | 522 (TLWYRSPEV; listed as Homo sapiens) [compound 522]
34 | ″++″ (≥20% = ++) | 523 (YQIPRTFTL; listed as Homo sapiens) [compound 523]
35 | ″+++″ (≥50% = +++) | 525 (VLLEAGEGLVTI; listed as Homo sapiens) [compound 525]
36 | ″+++″ (≥50% = +++) | 528 (SVAEGRALMSV; listed as Homo sapiens) [compound 528]
37 | ″+++″ (≥50% = +++) | 530 (VMYADIGGMDI; listed as Homo sapiens) [compound 530]
38 | ″+++″ (≥50% = +++) | 537 (TLAPGEVLRSV; listed as Homo sapiens) [compound 537]
39 | ″+++″ (≥50% = +++) | 544 (LLWDVPAPSL; listed as Homo sapiens) [compound 544]
40 | ″+++″ (≥50% = +++) | 545 (LLADLLHNV; listed as Homo sapiens) [compound 545]
41 | ″++″ (≥20% = ++) | 548 (ALWENPESGEL; listed as Homo sapiens) [compound 548]
42 | ″+++″ (≥50% = +++) | 549 (AMLENASDIKL; listed as Homo sapiens) [compound 549]
43 | ″+++″ (≥50% = +++) | 550 (FLYDEIEAEVNL; listed as Homo sapiens) [compound 550]
44 | ″+++″ (≥50% = +++) | 551 (KLYESLLPFA; listed as Homo sapiens) [compound 551]
45 | ″++++″ (≥75% = ++++) | 553 (SLLNQDLHWSL; listed as Homo sapiens) [compound 553]
46 | ″+++″ (≥50% = +++) | 554 (LLMPSSEDLLL; listed as Homo sapiens) [compound 554]
47 | ″+++″ (≥50% = +++) | 555 (YVLEGLKSV; listed as Homo sapiens) [compound 555]
48 | ″+++″ (≥50% = +++) | 556 (FLTDLEDLTL; listed as Homo sapiens) [compound 556]
49 | ″+++″ (≥50% = +++) | 558 (GLLENIPRV; listed as Homo sapiens) [compound 558]
50 | ″+++″ (≥50% = +++) | 560 (ALWDIETGQQTTT; listed as Homo sapiens) [compound 560]
